Experimental data published in paper PMC9712106.

Experiments:
[1] = biological target: PfPTRAMP (42-309) with a C-terminal Avitag, biotinylated (Plasmodium falciparum); test: BLI; biotinylated PfPTRAMP or PTRAMP-CSS immobilised on High Precision Streptavidin (SAX) biosensors; twofold dilution series of anti-PfPTRAMP nanobody; 25 °C; kinetics buffer (PBS pH 7.4, 0.1% BSA, 0.02% Tween-20); 1:1 model; mean of two independent experiments
[2] = biological target: biotinylated PTRAMP-CSS heterodimer: PfPTRAMP (42-309) with C-terminal Avitag, with PfCSS (20-290) (Plasmodium falciparum); test: as above

| Binder | Kd [1] | koff [1] | kon [1] | Kd [2] | koff [2] | kon [2] |
| --- | --- | --- | --- | --- | --- | --- |
| anti-PfPTRAMP nanobody H8 (VHH) VHH: QVQLQESGGGLVQPGGSLRLSCAASGFTFSSYWMYWVRQAPGKGLEWVSAINTGGGSTAYADSVKGRFTISRDNAKNTLYLQMNSLKSDDTAVYYCVKARGSSWSDRVFDYWGQGTQVTVSS | 400 nM | 0.25 s⁻¹ | 620000 M⁻¹ s⁻¹ | 410 nM | 0.25 s⁻¹ | 790000 M⁻¹ s⁻¹ |
| anti-PfPTRAMP nanobody H10 (VHH) VHH: QVQLQESGGGLVQPGGSLRLSCAASGFTFDNYWMYWVRQAPGKGLEWVSAINTVGSHTYYADSVKGRFTISRDNAKNTLYLQMNSLKSEDTAVYYCAKGPWGFGTSGWGEMDYWGKGTQVTVSS | 530 nM | 0.088 s⁻¹ | 170000 M⁻¹ s⁻¹ | 390 nM | 0.077 s⁻¹ | 200000 M⁻¹ s⁻¹ |
